{"source": "paper PMC4400868", "test": "AUC", "data": [{"substance": "Leucine-rich amelogenin protein, phosphorylated at S16 (LRAP(+P))", "values": [{"measurement": "% monomers (2.5 mM CaCl2, pH 7.4)", "value": 94, "unit": "% monomers"}, {"measurement": "monomer % (0.78 mg/mL, 50 mM NaCl, pH 7.4)", "value": 93.6, "unit": "%"}, {"measurement": "monomer % (0.78 mg/mL, 50 mM NaCl, pH 8.0)", "value": 92.3, "unit": "%"}, {"measurement": "monomer % (0.92 mg/mL, 150 mM NaCl, pH 8.0)", "value": 92.6, "unit": "%"}, {"measurement": "monomer % (0.92 mg/mL, 200 mM NaCl, pH 8.0)", "value": 97.9, "unit": "%"}, {"measurement": "monomer % (1.0 mg/mL, 50 mM NaCl, pH 5.8)", "value": 84.4, "unit": "%"}, {"measurement": "monomer % (1.0 mg/mL, 150 mM NaCl, pH 5.8)", "value": 90.9, "unit": "%"}, {"measurement": "monomer % (1.0 mg/mL, 150 mM NaCl, pH 7.4)", "value": 93.9, "unit": "%"}, {"measurement": "monomer % (1.0 mg/mL, 200 mM NaCl, pH 5.8)", "value": 94.5, "unit": "%"}, {"measurement": "monomer % (1.0 mg/mL, 200 mM NaCl, pH 7.4)", "value": 97.7, "unit": "%"}]}]}
